In the supplement of paper PMC10567573:
± gives the standard deviation.

Test: protein stability index of a GFP-peptide fusion (GPS, HEK-293T) (PSI 1-6); higher = more stable
Details: c terminus: a fixed tail appended
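Note: 24-mer peptide tiles fused after GFP, lentivirally expressed, FACS-sorted into six equal bins by GFP/DsRed ratio, decoded by Illumina sequencing, PSI is the read-weighted mean bin number.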

Sequence | protein stability index (treatment: DMSO) | protein stability index (treatment: MLN4924 1 uM, 8 h)
NPQALSPQFTGILQLLQSRTSRKF [INTS3] | 2.93 ± 0.22 | 2.98 ± 0.35
QGKYECVATNSAGTRYSAPANLYV [PTPRD] | 2.9 ± 0.22 | 2.89 ± 0.64
MEALKLQPGLSFLNLGSGTGYLST [PCMTD1] | 2.3 ± 0.2 | 2.31 ± 0.22
FLVMKGQEGAASKVLGRLRALSDT [SLC2A12] | 2.27 ± 0.45 | 2.44 ± 0.39
LRSPRKFGVAGRSCQEVLRKGCLR [DFFB] | 2.9 ± 0.19 | 2.74 ± 0.35
VSGSWERDQQVEAAQRALVEVLGP [RETREG3] | 3.9 ± 0.33 | 4.08 ± 0.094
VCSQCGKVLEEGGFFEEKGAIFCP [PDLIM7] | 4.88 ± 0.22 | 4.81 ± 0.38
YARYHQAFADRDQSERQRHESQQL [TEKT4] | 2.83 ± 0.71 | 3.66 ± 0.64
HSMHKYQPRIHLVRAAQLCSQHWG [TBX6] | 2.14 ± 0.2 | 2.22 ± 0.3
QGMEGIKVFLHERELWLKFHEVGT [TBX5] | 2.2 ± 0.14 | 2.17 ± 0.23
YDLWASDNPLDRPLVGQDEFFLEQ [NOP53] | 4.31 ± 0.13 | 3.69 ± 0.43
KEFILTDEEVQRKREMILKRKEEE [VDR] | 5.33 ± 0.23 | 5.38 ± 0.23
TIEECCRKQKQELCEKFDYLYGIL [TRIM55] | 1.88 ± 0.54 | 2.41 ± 0.85
TEITELRRTLQGLEIELQSQLSMK [KRT13] | 2.78 ± 0.27 | 2.85 ± 0.18
KDHSCKDNIREAFQIYDKEASGYV [EFHC1] | 3.72 ± 0.31 | 3.81 ± 0.13
EMSLPEVQKDKYPEEFSLLKLQTK [SPATS1] | 4.29 ± 0.28 | 4.04 ± 0.34
KLPLPSTLRSHLKSFSMAKGLNAR [RAB40A] | 2.56 ± 0.18 | 2.68 ± 0.15
ARSIAEQAHELAYDPNYMSPFAQF [PPTC7] | 2.91 ± 0.35 | 3.08 ± 0.27
AYEFADRDEVRFFKGNKYWAVQGQ [MMP1] | 2.54 ± 0.45 | 2.74 ± 0.61
GNTAVSVLMLLVALLFTGIAVLGI [SCAMP3] | 1.99 ± 0.37 | 1.96 ± 0.34
AIALANSDSMHIEDVEAVQKLQDV [ESRRG] | 4.53 ± 0.092 | 4.66 ± 0.15
CVLADRLDCADALLKAGADVNKTD [INVS] | 4.4 ± 0.48 | 4.17 ± 0.42

Sequence | protein stability index (treatment: DMSO) | protein stability index (treatment: MLN4924 1 uM, 8 h)
LDDLSQKLKPLGEAEREFILNLKK [NLN] | 3.36 ± 0.44 | 3.07 ± 0.22
PIFVNSPTLDAPGGRALVVRKVPP [SMAD6] | 3.23 ± 0.059 | 3.34 ± 0.29
IGRDPPAETQPQNPPAQPAPNAWQ [CLPTM1] | 5.21 ± 0.31 | 5.02 ± 0.25
SKLRNYRKDLAKLHREVRSTPLTA [VTI1B] | 3 ± 0.25 | 3.26 ± 0.26
GIKGLVRDSHGKGIPNAIISVEGI [CPXM2] | 2.8 ± 0.067 | –
YCYRCGNQAAIMELDDTLKYSFLQ [PPP2CA] | 2.74 ± 0.58 | 2.58 ± 0.5
LGVALFTMLAGHYPFQDSEPVLLF [TRIB3] | 2.94 ± 0.59 | 2.93 ± 0.27
FDVKNDRYIVNGSHEANKLQDMLD [EIF5] | 3.97 ± 0.11 | 3.81 ± 0.25
DEIENLLDSDHRELIGDYSKAFLL [CDC25B] | 3.55 ± 0.36 | 3.41 ± 0.53
AYEFNPELVLVSAGFDAARGDPLG [HDAC6] | 3.11 ± 0.58 | 3.58 ± 0.23
CTFSLTHPANRSCRETGSFLDLFR [SLC22A15] | 2.31 ± 0.33 | 2.14 ± 0.45
KGVQQKRPSEAQSVILRRYFLELT [DENND6A] | 2.47 ± 0.098 | 2.57 ± 0.22
DESQISAEEAEDHGRIPDPDDFVP [FAM189A2] | 5.6 ± 0.2 | 5.61 ± 0.15
VYTRHGVPISVTGIAQVKIQGQNK [FLOT1] | 2.72 ± 0.12 | 2.63 ± 0.39
YIPRDVDETGITVASLERFSTYTS [ZC3H15] | 2.65 ± 0.16 | 2.96 ± 0.16
FKPVVAAQKISKGADPKSVVCAFF [ZC3H15] | 2.32 ± 1 | 2.81 ± 1.5
VRVLDMVAKLESECLKRQGQREPG [FBXO34] | 4.06 ± 0.29 | 4.17 ± 0.31
VDGAGKPGAEEAQDPEGKGEQEHS [CHGA] | 5.56 ± 0.18 | 5.3 ± 0.11
KHFKVQLVDNVYCIGQRRFHTMDE [NCK2] | 2.48 ± 0.16 | 2.44 ± 0.37
LPSERLDFSMAEALNQEFLATRSN [PRPH] | 4.24 ± 0.17 | 4.3 ± 0.2
LYYQSQELPNGSVKEAPAPTPTSL [PDZK1] | 3.87 ± 0.27 | 3.93 ± 0.19
GPCEGPSKEDKDLDSSEGSSQEDE [SPANXN3] | 5.68 ± 0.14 | 5.68 ± 0.14

Sequence | protein stability index (treatment: DMSO) | protein stability index (treatment: MLN4924 1 uM, 8 h)
LCEKEPLGNVLFSPICLSTSLSLA [SERPINB5] | 2.13 ± 0.34 | 2.18 ± 0.34
ETGEAARDPSLRPARTVLVGSLSW | 3.06 ± 0.32 | 2.88 ± 0.27
QYESIAAKNLQEAEEWYKSKYADL [PRPH] | 4.76 ± 0.23 | 4.49 ± 0.21
SLHCLLDQFDKDLPVYLKKDPAYF [DENND6A] | 2.13 ± 0.41 | 2.23 ± 0.23
YVKYQVAIHQDPPDECGKTEFTRF [ATE1] | 2.4 ± 0.2 | 2.56 ± 0.5
LYSLTLYGLRGPHKADSIQGTART [TNXB] | 2.11 ± 0.21 | 2.48 ± 0.3
IPYNAKFLGSTEVEQPKGTEVVRD [GULP1] | 4.7 ± 0.44 | 4.69 ± 0.23
IKCFHEIITIGYNVYHSYDLPWFR [CDS2] | 2.21 ± 0.12 | 2.31 ± 0.33
MLSPQRVAAAASRGADDAMESSKP [ATL3] | 5.21 ± 0.22 | 5.25 ± 0.25
ESRYTSDYFISYGIEHAQCVPPSE [ETS1] | 3.22 ± 0.29 | 3.5 ± 0.53
IVSHFQKLFDVPSLNGVYPRMNEV [CEP70] | 2.46 ± 0.82 | 2.56 ± 0.53
KYLKPSGNMFPTIGDVHLAPFTDE [CARM1] | 3.69 ± 0.1 | 3.61 ± 0.37
PPSARHRAHPPQRPASSGGAHTLV [KCNA3] | 4.06 ± 0.42 | 4.1 ± 0.45
MQRKQSLGKPDQKDLNENLAATQG [DLC1] | 5.11 ± 0.37 | 4.99 ± 0.45
VSFVIHNLPIIAKMAAVSKASGRF [SEPHS2] | 3.08 ± 0.29 | 2.75 ± 0.61
LIKNFHQYSVEGGKETLTPSELRD [S100A14] | 4.15 ± 0.2 | 4.3 ± 0.26
DSFDKFDFCEPSFVTGNCLEISPD [PCMTD2] | 4.36 ± 0.12 | 4.66 ± 0.46
MELSWGQSPGQPVQGGSEAWGPGT [TEX19] | 3.86 ± 0.53 | 4.06 ± 0.36
KEDTLLLIAEVMGEDIPEKIKDEV [C8orf76] | 4.35 ± 0.49 | 4.22 ± 0.38
ASVSDEELKRRVAEELALEQAKKE [CHCHD3] | 5.76 ± 0.25 | 5.45 ± 0.49
HHFFCDIAPVLKLASHHNHFSQIV [OR10K2] | 2.45 ± 0.45 | 2.67 ± 0.55
